Assay results published in patent US10556936B2, “Immunogenic proteins and fragments thereof from allergenic mites” (ALK-ABELLÓ A/S, priority 2016, dated 2020).

What was measured:
[1] = test system: HDM specific T-cell lines from HDM allergic donors; experiment: T cell reactivity of protein: IL-5/IFNg FluoroSPOT or 72 h T cell proliferation in HDM specific T-cell lines (Example 2); assay type: cell-based, human; conditions: responding donors of tested HDM allergic donors
From the text: PBMCs from European HDM-allergic individuals were recruited in the Copenhagen region (defined by clinical history of allergy to house dust mite and specific IgE to group 1 and group 2 major allergens from Der p and/or Der f and with measured specific IgE (CAP) >0.7 kU/L towards Der p/f 1 or Der p/f 2. In addition, PBMCs from 10 US HDM-allergic individuals were recruited in San Diego (defined by Der p extract IgE titers greater than 0.35 kUA/L). PBMCs were isolated from whole blood by density gradient centrifugation according to manufacturers' instructions (Ficoll-Hypaque, Amersham Biosciences, Uppsala, Sweden). Der p- and Der f-specific extract IgE titers were determined using the ImmunoCAP system (Thermo Fisher, Uppsala, Sweden). In a separate series of experiments, pooled plasma from 10 European and 10 American HDM atopic individuals from the San Diego region, respectively, was utilized to run 2D immunoblots to elucidate IgE and IgG reactivity towards the proteins, which had at least one peptide with positive T cell response.
T cells reactivity was determined by establishment of HDM specific T-cell lines according to standard methods. In short, PMBCs from HDM allergic donors were cultured for 2-3 weeks in the presence of house dust mite allergen extract. The responses to proteins having SEQ ID NOs 1-44 were assessed by IL-5/IFNg FluoroSPOT (Mabtech FS-0108-10) according manufacturer protocol, (after 2 weeks) or proliferation in a standard 72 h T cell proliferation assay, as described in Henmar H et al., Clin Exp Immunol 2008; 153(3):316-23. (after 3 weeks). In addition these established T cell lines were used for further characterization and epitope mapping.

[2] = test system: basophils in whole blood from HDM allergic donors; experiment: Basophil Activation Test (BAT); assay type: cell-based, human; conditions: responding donors of tested HDM allergic donors; whole blood stimulated 1 h
Outline: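 Basophil activation was read by flow cytometry as increased surface activation markers. The stimulus was a 1 h exposure of blood from 14 HDM-allergic donors to test proteins or major mite allergens at graded concentrations (e.g. 1–1000 ng/ml).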

B1: 4 (protein, listed as Dermatophagoides pteronyssinus)
chain: QVYCNGAAIVSAARSQIGVPYSWGGGGIHGKSRGIGEGANTVGFDCSGLAQYSVYQGTHKVLARVASGQYSDPKCHHVAYGSHQPGDLVFFGNPIHHVGIVSAHGRMINAPHTGTNVREENIWSDHIANVARCW
[1]
  % T cell responding donors to protein: 8 of 24

B2: 40 (protein, listed as Dermatophagoides pteronyssinus)
chain: KSAPEGCFRAAVLDHVHQTDARHLSNTAKIIDLNFKVYEDAAALAKKQGADIIVFPENGLIYSILSREKADEFASDIPDAEVNACTLDSKFVYNRLACLAQKHQMFVVADLIDRKSCEELGINNVSDSCPADKKFLFNTAVLFDRQGKLLGRYHKMHLFGEISMNPPPKPELLVIDTELGRLGMQICFDMIFKTPGYLLAQENKFDTMLFPTWWFDESPMLSSSQYQMAWAFGNNVTLLASNIHRIEVGSRGSGIYVGPHRTLAAALYDDSVERLVLANVPIKPKETDQSACPLDSEIIEVPQQIPIPKSVKYHHQNLNLKDVTLLQLSSNESEVHLCHKGVCCQFEYRLAMKDQPQESWVDRVPLLANMLHYLTPEERYYLLIANRTRPGAYPWSEEFCAVVVCPSSRWNFGKMQKDCSKIGSNQELSSRFVHAKLRGKFSEDTAVYPSAVGSKNQLIYPENKWKFWKVNVPNEPEYFIELGAKDNSESRAMELGALVLYGRNYNRDPRYEQKALPIN
[1]
  % T cell responding donors to protein: 15 of 27
[2]
  % responding donors in BAT Assay: 0 of 8

B3: 24 (protein, listed as Dermatophagoides pteronyssinus)
chain: DPVQQRPTLRGVTVRVGPFVKENNGKFEGFIPDLVQAISEKVGFDYTLYLSPDGRYGNVISDGNVTGMIGEVYNKKADFAAADLTMTEARENYITFTEPFMINQLAALIRREDAEGLNTLEDLAKAQETFPKRKRIVLGTLRNGATNYFLSKSDDPLAKKIYEQIKADDQSVVKSISEGVERVDKQGGYAFIMESASAEHEIANNCKLTMLLDWRNLFPRKYAFALPKDSPYLEHFNNAIKQLNSEGKIAELRRKYWANNCAENKTKDDKN
[1]
  % T cell responding donors to protein: 3 of 24

B4: 20 (protein, listed as Dermatophagoides pteronyssinus)
chain: NWQMVWQDEFNGGHLDQNHWEFETGGGGWGNNELEFYTANRSQNVRVENGHLVIDVRVESYGGRDFTSGRIHSKQAWAYGKFEARARLPSGHHLWPAIWMFPRDSKYGPWAASGEIDIMEYRGDVHDKIEGTIHYGGQWPNNIYTGSGPHHFNVDFSKDFHNFAVEWDTKEIRWYMDGNKYFSVNIDRNMWSGKGNNPYNKNGQPFDQPFRWILNVAVGGNFFGPGPYVTPDQARHWQKHTMEIDYVRVYQWR
[1]
  % T cell responding donors to protein: 6 of 24

B5: 44 (protein, listed as Dermatophagoides pteronyssinus)
chain: VVIKVENLPEQCDYTQCPKWSKDDINVHLVAHTHDDVGWLKTVEQYYYGLKNDIQRAGVQYILDTMIEELIRNKDRRFIYVEIAFFWKWWQEQNEEQRMIVKELVRTGQLEFINGGWSMPDEAATHYNSLIDQSTWGLRQLNDTFGRCGHPKVTWQIDPFGHSKEMANLYAQMGYDALFFARQDYQDRENRMSNRTLEHVWQGSDDLGEIGDIFTGMMFSGYGPIEFNWDITNGPEDAVVDNPESEEYNVPDKIRRFVEKAKYFGQFYATNHFMFPMGTDFQYTDAHTWFKNLDKLINAVNKAGKGVRAFYSTPSCYAHALYEQNRTWTTKTDDFFPYASDEHAYWTGYFTSRPAIKRMERIGNNLLQACKQLDVLADNNGRFEMNLTKMREAMGVMQHHDAVTGTEKQHVAFNYAKMLDSAMLQCRHIINESYKKLLPKSSTSEHEFCPYLNISSCPTTEMGESRIIYLYNPLGHRLINHTVRLPIKNGYYYRIQDQNNQSVPSVLVPIPEFVQKIPGRKSVATKELVFRVPVIEPLGITTMYMYVDKNEQPNSAIEIKGENPDDNDDKSKWLVLTKNLIVEFYSNGTISRISIDKLHQSISISNEFRLYHGAGGTGRHSGAYIFRPNEQKTFPVTNKIKSTFFIDRKYHIVQEVHQQFDSSFVGQIIRMDKYNDNVEFDFVVGPIPVNDQIGKEIIASYKTDLENDETFYTDANGRQMLRRRWNYRPSWKYNVQEPISGNYYPVNSRIAIRDEKQSLQMTIMTDRSQGGSLSPEQINGSIDIMIHRRLLHDDYFGVGEALNEPGVDGHGLVIRGKHLLLLNSIKQSASEHRPLAQQMFMEPIISFTSIESNKQAEKQSNQYIGLNNDLPSNVHLLTLEQWHSKRYLLRLEHFYQSNEDTELSKPVKLSLRHLFKSFEIIAVEELTLGANQPISSLKNRLHYRYNRPLEQRQQQQSSLLLDDPKIEGENFDIHLSPMQIRTFLIDIKRN
[1]
  % T cell responding donors to protein: 7 of 24

B6: 18 (protein, listed as Dermatophagoides pteronyssinus)
chain: QSLFVDYNDYSCGSSQNETNELIQEFKIFKKNINGNENFKKINDFIEKARLFRDNAAKQMLEIDQQLLTLNVIQISQRIKLENNKIQCEKLTKFSELLSMQLLAYEVGMFEFAEEIDPNIDFDRKMKNFLDETSRLFNLAEFEKLEKKFRNATSIEKLKNYIDGELVALNDYINEFLKDIIMSEFTVQSRYYLNFSIEDQVQIDSTLMTFSALKILLNDLKDYLEHLDN
[1]
  % T cell responding donors to protein: 0 of 24

B7: 3 (protein, listed as Dermatophagoides pteronyssinus)
chain: MAIDGKYQMESSEHFEEFVKEMGLDVDMTNVDLSKTSTMEICKDGDVYHIKSETAGIAHEIKFKVGEEFEDDMNGHKFKNVVTMECDNKMVQKKTSADGGKVVNVVREFTDAGCTVKSTYNTVTWTRVYKRM
[1]
  % T cell responding donors to protein: 1 of 29
[2]
  % responding donors in BAT Assay: 0 of 16

B8: 12 (protein, listed as Dermatophagoides pteronyssinus)
chain: MSISAHGGGLVNGIAGMENKFTVFTSGKPVSGLTVAFEGPTKPEINFNSTKDGSVDVGYIPKAGGQYKIHIKYEGKEIVGSPFKCNISGDESTHRKLTEKVKVGGPNISTGKVNQDNQLTIDCKEAGITGGISFAMEGPAKVEVSFRNNNDGTITVIYKPPTPGDYKLHLKFNDIHLPGSPYPIVVSA
[1]
  % T cell responding donors to protein: 5 of 24

B9: 31 (protein, listed as Dermatophagoides pteronyssinus)
chain: MAKFNYLPVDVQEELRNTANAIVSVGKGILAADESTGTIGKRFADINVENVEQNRQAYRQLLFYSEGIEQYISGVILFDETVYQKDDKGVPFPELLKKKGIIPGIKVDTGVVTLQGTNGESTTQGLDNLTKRCQEYYNQGCRFAKWRCVLKIGQDEPSSLAIVENANVLARYASCCQQARIVPIVEPEILPDGDHNLERCQKVTETVLAAVYKALNDHHVYLEGTLLKPNMVTPGQSCPQKASPQEVAQATVTALQRTVPAAVPGIVFLSGGQSEEEASVNLNAINQYQGKKPWALSFSYGRALQASALRAWQGKPENIGAGQKELLQRAKANVLAHKGQYVAGSIPSLASAKSNFVAQHKY
[1]
  % T cell responding donors to protein: 6 of 27
[2]
  % responding donors in BAT Assay: 0 of 8

B10: 16 (protein, listed as Dermatophagoides pteronyssinus)
chain: MSKPIFYYHPFSGPCRTVSTVAKILNVDMEMKKLDLLTKEHLNPEFLKVNPFHKVPTFVDSDGFVVDESRVIAMYLVESRKPDSFLYPKNDLKKRIQIDRWLHYDINLSTTISAPMFCVFRGHQVQDYQVEQGKETLKTLDGVMQSFEGKFLTGADQFTLADIAMYFSLNTMEVYPKYFKFDDYPNLKSWYHRVAEALKQYDTEGTIPKAIETMKQFIQQRAAEAEKH
[1]
  % T cell responding donors to protein: 3 of 24

B11: 37 (protein, listed as Dermatophagoides pteronyssinus)
chain: DTPANCTYEDIKGLWLFEETEPIKDRWEKCPEHQQQREKYSKKIFIRLDFPNVAVDKFGNIGEWTMIYNQGFEVKINYRKYFAFSAYERKSENNVLSYCHKTQPGWSHDVLGNNWACYVGHKVNNWNDDDVSKTTTVGAEKFPVKQHSERELYLQNINVEHILSQKHIDHLNSQQKSWKAIVYPDLQSKSIEHLIQMAGGRKSRIINRPKPLRATEQQKQLARSLPESFDWRNLNGIDYVSPVRDQGKCGSCYTFASMAMLESRIRIQTNNTFKPIFSTQEVVDCSEYSQGCDGGFSYLIAGKYAQDFGVIDESCYPYKGVTGKCQNQQNFNQTNEKCKQRTYTIDYKYVGGYFGACNEEAMQIELVQNGPIAVGFEVYGDFFGYSEGIYSHQPSNESNDQHQQIKAEFNPFEMTNHAVLIVGYGKDKKTGEKYWIVKNSWGKQWGMDGYFWMRRGTDECAIESLAMAATPIPN
[1]
  % T cell responding donors to protein: 4 of 27
[2]
  % responding donors in BAT Assay: 0 of 8

B12: 38 (protein, listed as Dermatophagoides farinae)
chain: QSRDRNDKPYRIVCYWGTWAFYRPASGKFQAENVNPNLCTHIMYGFAKLQNNKIALYDPDLDDGDEDWNSGLQWGHGMIRRMVNLRTYNPHLTTMISLGGWNEGSDKYSIMVRDPASRKIFIQSVLHLLAEFDLDGLDFDWEYPAMQASGDSDRKPGRAEDKEDFVTLLRELHEAFQPHGYVLSSAVSAGKPTIDRAYNIPEVSKYLDFINLMSYDYHGGWESHTGHNAPLNSYKNANELDKEFTVTYSVEYWLNHGVDPKKLVLGIPLYGRTFTLAGSEHGIGAPTIGKGGESGTITRTIGMLGYNEICTMIKQGWQLYRDEIERIPYAVHANQWIGYDDRESVNEKLNLLMAKHLGGAMVWSIDTDDFVGNCVGVKYPLLRSISKKLNNVDGPDPDIKRYHYHTSTAKPHTDGTTSTHHDHKTTTTKHHKTTQPHHKTTQPHHTQTITTTTERPHGKFQCHQAGFFADPENPRKFHQCVDFGGHLKDYEFMCGEGTHYDEKLHICVR
[1]
  % T cell responding donors to protein: 11 of 27
[2]
  % responding donors in BAT Assay: 0 of 8
